Series [1] addresses T1, hTHEM2 (human hotdog-fold thioesterase THEM2, thioesterase superfamily member 2) (Homo sapiens, UniProt Q9NPJ3).
T1 sequence (Q9NPJ3 1-140): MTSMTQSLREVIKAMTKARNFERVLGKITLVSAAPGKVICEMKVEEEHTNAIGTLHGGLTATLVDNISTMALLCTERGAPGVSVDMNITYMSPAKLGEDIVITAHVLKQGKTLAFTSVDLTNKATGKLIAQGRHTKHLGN
Put plainly: steady-state competitive inhibition, DTNB thioesterase assay. The format is biochemical.

Substrate in series [2]: CCCCCCCC/C=C\CCCCCCCC(=O)SCCNC(=O)CCNC(=O)[C@H](O)C(C)(C)COP(=O)(O)OP(=O)(O)OC[C@H]1O[C@@H](n2cnc3c(N)ncnc32)[C@H](O)[C@@H]1OP(=O)(O)O
The experiment in a line: steady-state hydrolysis kinetics. Particulars: pH 7.5; 25.0 °C. The series is classed as biochemical, Homo sapiens.

Substrate in series [3]: CC(C)(COP(=O)(O)OP(=O)(O)OC[C@H]1O[C@@H](n2cnc3c(N)ncnc32)[C@H](O)[C@@H]1OP(=O)(O)O)[C@@H](O)C(=O)NCCC(=O)NCCSC(=O)Cc1cccc(O)c1
The experiment in a line: steady-state hydrolysis kinetics. The series is classed as biochemical, Homo sapiens. The note with it: pH 7.5; 25.0 °C.

Substrate in series [4]: CCCCCC/C=C\CCCCCCCC(=O)SCCNC(=O)CCNC(=O)[C@H](O)C(C)(C)COP(=O)(O)OP(=O)(O)OC[C@H]1O[C@@H](n2cnc3c(N)ncnc32)[C@H](O)[C@@H]1OP(=O)(O)O
The experiment in a line: steady-state hydrolysis kinetics. The note with it: pH 7.5; 25.0 °C. The series is classed as biochemical, Homo sapiens.

Substrate in series [5]: CC(C)(COP(=O)(O)OP(=O)(O)OC[C@H]1O[C@@H](n2cnc3c(N)ncnc32)[C@H](O)[C@@H]1OP(=O)(O)O)[C@@H](O)C(=O)NCCC(=O)NCCSC(=O)Cc1ccc(O)c(O)c1
Put plainly: steady-state hydrolysis kinetics. The series is classed as biochemical, Homo sapiens. The note with it: pH 7.5; 25.0 °C.

Substrate in series [6]: CCCCCCCCCCCC(=O)SCCNC(=O)CCNC(=O)[C@H](O)C(C)(C)COP(=O)(O)OP(=O)(O)OC[C@H]1O[C@@H](n2cnc3c(N)ncnc32)[C@H](O)[C@@H]1OP(=O)(O)O
The experiment in a line: steady-state hydrolysis kinetics. The format is biochemical, Homo sapiens. The note with it: pH 7.5; 25.0 °C.

Substrate in series [7]: CCCCCCCCCC(=O)SCCNC(=O)CCNC(=O)[C@H](O)C(C)(C)COP(=O)(O)OP(=O)(O)OC[C@H]1O[C@@H](n2cnc3c(N)ncnc32)[C@H](O)[C@@H]1OP(=O)(O)O
The experiment in a line: steady-state hydrolysis kinetics. The format is biochemical, Homo sapiens. Particulars: pH 7.5; 25.0 °C.

Substrate in the series “purified protein”: CCCCCCCCCCCCCC(=O)SCCNC(=O)CCNC(=O)[C@H](O)C(C)(C)COP(=O)(O)OP(=O)(O)OC[C@H]1O[C@@H](n2cnc3c(N)ncnc32)[C@H](O)[C@@H]1OP(=O)(O)O
The experiment in a line: purified protein. The note with it: pH 7.5; 25.0 °C.

`CCNC(=O)CCNC(=O)[C@H](O)C(C)(C)COP(=O)(O)OP(=O)(O)OC[C@H]1O[C@@H](n2cnc3c(N)ncnc32)[C@H](O)[C@@H]1OP(=O)(O)O` [desulfoCoA]: the Ki (commonly a measure of affinity in units of concentration, obtained from inhibition or displacement) in series [1] stood at 9 µM.

B1: hTHEM2 (human hotdog-fold thioesterase THEM2, thioesterase superfamily member 2) (Homo sapiens) (protein)
chain: MTSMTQSLREVIKAMTKARNFERVLGKITLVSAAPGKVICEMKVEEEHTNAIGTLHGGLTATLVDNISTMALLCTERGAPGVSVDMNITYMSPAKLGEDIVITAHVLKQGKTLAFTSVDLTNKATGKLIAQGRHTKHLGN
For B1, the Km (as a rule, the concentration of substrate that gives half-maximal velocity) in series [2] stood at 9 µM; in series [3], 41 µM; in series [4], 9 µM; in series [5], 10 µM; in series [6], 9.9 µM; in series [7], 4.9 µM. Moreover, the Km in the series “purified protein” is 5 µM. Besides, the kcat (usually the maximal rate divided by the concentration of active sites) turned out to be 0.011 ± 0.001 s⁻¹ in series [2]; 1.4 ± 0.1 s⁻¹ in series [3]; 0.017 ± 0.001 s⁻¹ in series [4]; 0.19 ± 0.01 s⁻¹ in series [5]; 0.019 ± 0.001 s⁻¹ in series [6]; 0.016 ± 0.001 s⁻¹ in series [7]. The kcat in the series “purified protein” came out at 0.02 s⁻¹. The kcat/Km (usually the turnover number divided by the Michaelis constant) in series [2] amounted to 1300 M⁻¹ s⁻¹; in series [3] it was 35000 M⁻¹ s⁻¹; in series [4], 1900 M⁻¹ s⁻¹; in series [5], 18000 M⁻¹ s⁻¹; in series [6], 1900 M⁻¹ s⁻¹; in series [7], 3300 M⁻¹ s⁻¹. Besides, the kcat/Km in the series “purified protein” came to 4000 M⁻¹ s⁻¹.

These data come from paper PMC2929599 (Biochemistry, 2009).
